Results on one substance are retold here after PMC7295969.

For the assay, the target named is Orfelia fultoni luciferase (Orfelia fultoni (endogenous in larvae)). Put plainly: native gel or EMSA; 6% Native-PAGE of the luciferase fraction from anion exchange, no SDS or mercaptoethanol, 25 mM Tris/192 mM glycine, ice-cooled; band shown by bioluminescence with hot extract; the luminescent ~220 kDa band was eluted and re-run on denaturing SDS-PAGE (single ~70 kDa band).

Orfelia fultoni luciferase (enzyme) yielded a stoichiometry N of 3.

The stoichiometry N is a count of units in the complex or per binding partner.
